Columns and labels:
[1] = target: c-Src SH2; assay: SH2 binding enrichment of the phosphorylated peptide, bacterial display (enrichment ratio); higher = better substrate or ligand; peptides without Tyr show the background
[2] = target: Grb2 SH2 (UniProt P62993); assay: as above
[3] = target: SHP2-C SH2; assay: as above
[4] = system: c-Abl (mouse); assay: phosphorylation enrichment, bacterial display (enrichment ratio); higher = better substrate or ligand; peptides without Tyr show the background
[5] = target: Jak2 (UniProt O60674); assay: as above
[6] = target: FGFR3 (UniProt P22607); assay: as above
[7] = target: EPHB2 (UniProt P29323); assay: as above
[8] = system: c-Src; assay: as above
[9] = target: EPHB1 (UniProt P54762); assay: as above
[10] = target: Fyn (UniProt P06241); assay: as above
[11] = target: FGFR1 (UniProt P11362); assay: as above
[12] = target: Hck (UniProt P08631); assay: as above
[13] = system: AncSZ; assay: as above
[14] = target: MERTK (UniProt Q12866); assay: as above
[15] = target: Fes (UniProt P07332); assay: as above
[16] = system: Fer (mouse); assay: as above
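Wherever SH2 binding enrichment of the phosphorylated peptide, bacterial display is given: peptide library displayed on the E. coli surface as eCPX fusions, selected cells deep-sequenced, score is each peptide's frequency after selection divided by its frequency in the input.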
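Wherever phosphorylation enrichment, bacterial display is given: 11-residue human phosphosite peptides and single-mutation variants displayed on the E. coli surface, counted by deep sequencing, each peptide's frequency after selection divided by its frequency in the unselected input library; frequency after pTyr selection over input frequency; kinase dosed for 20-30% of maximal phosphorylation in three min.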

Sequence of MERTK (Q12866 whole entry, looked up): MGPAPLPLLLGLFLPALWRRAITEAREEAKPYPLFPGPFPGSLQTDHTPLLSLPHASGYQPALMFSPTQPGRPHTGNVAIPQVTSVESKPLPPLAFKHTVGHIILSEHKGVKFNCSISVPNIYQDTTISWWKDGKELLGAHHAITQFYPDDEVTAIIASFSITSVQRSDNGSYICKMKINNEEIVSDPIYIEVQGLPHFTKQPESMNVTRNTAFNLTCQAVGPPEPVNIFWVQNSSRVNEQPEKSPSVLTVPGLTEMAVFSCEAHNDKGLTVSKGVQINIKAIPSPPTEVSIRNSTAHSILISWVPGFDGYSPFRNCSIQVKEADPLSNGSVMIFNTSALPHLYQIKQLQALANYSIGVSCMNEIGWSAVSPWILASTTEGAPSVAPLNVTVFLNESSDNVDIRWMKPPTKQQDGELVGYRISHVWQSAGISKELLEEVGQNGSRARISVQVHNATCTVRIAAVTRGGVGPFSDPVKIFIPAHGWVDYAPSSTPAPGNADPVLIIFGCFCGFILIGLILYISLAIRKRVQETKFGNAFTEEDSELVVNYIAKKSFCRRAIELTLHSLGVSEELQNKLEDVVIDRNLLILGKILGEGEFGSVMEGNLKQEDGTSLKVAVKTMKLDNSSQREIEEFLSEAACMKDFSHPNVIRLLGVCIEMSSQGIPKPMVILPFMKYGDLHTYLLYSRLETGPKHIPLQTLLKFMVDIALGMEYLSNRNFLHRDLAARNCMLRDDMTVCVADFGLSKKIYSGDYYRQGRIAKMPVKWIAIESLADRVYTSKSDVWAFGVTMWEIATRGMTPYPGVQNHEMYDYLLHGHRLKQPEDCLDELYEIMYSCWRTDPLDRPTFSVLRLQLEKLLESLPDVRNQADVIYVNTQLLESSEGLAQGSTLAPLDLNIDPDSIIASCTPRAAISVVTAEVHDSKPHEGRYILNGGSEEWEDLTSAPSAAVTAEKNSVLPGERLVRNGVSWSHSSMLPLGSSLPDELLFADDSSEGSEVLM
Sequence of FGFR3 (P22607 whole entry, looked up): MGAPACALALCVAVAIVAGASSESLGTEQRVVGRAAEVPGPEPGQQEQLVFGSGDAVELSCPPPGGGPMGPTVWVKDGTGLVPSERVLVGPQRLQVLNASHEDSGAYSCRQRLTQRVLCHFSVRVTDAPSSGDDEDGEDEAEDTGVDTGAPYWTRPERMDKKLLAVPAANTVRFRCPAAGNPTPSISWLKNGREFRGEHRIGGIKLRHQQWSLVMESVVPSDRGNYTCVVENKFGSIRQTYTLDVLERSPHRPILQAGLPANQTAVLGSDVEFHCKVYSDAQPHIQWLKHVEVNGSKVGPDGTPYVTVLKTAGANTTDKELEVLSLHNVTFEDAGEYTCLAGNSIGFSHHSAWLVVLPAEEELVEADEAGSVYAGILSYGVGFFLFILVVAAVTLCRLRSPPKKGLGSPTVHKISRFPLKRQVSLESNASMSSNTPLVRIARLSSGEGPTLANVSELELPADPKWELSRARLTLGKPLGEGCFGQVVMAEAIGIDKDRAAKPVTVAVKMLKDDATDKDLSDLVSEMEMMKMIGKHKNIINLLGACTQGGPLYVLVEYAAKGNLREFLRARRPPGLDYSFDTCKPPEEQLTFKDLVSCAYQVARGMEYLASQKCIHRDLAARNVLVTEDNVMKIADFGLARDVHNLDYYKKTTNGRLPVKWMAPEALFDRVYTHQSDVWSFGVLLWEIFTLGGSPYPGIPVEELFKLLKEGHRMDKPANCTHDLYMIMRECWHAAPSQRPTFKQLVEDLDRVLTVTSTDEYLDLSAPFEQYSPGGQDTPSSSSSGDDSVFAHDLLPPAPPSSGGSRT
Sequence of EPHB2 (P29323 whole entry, looked up): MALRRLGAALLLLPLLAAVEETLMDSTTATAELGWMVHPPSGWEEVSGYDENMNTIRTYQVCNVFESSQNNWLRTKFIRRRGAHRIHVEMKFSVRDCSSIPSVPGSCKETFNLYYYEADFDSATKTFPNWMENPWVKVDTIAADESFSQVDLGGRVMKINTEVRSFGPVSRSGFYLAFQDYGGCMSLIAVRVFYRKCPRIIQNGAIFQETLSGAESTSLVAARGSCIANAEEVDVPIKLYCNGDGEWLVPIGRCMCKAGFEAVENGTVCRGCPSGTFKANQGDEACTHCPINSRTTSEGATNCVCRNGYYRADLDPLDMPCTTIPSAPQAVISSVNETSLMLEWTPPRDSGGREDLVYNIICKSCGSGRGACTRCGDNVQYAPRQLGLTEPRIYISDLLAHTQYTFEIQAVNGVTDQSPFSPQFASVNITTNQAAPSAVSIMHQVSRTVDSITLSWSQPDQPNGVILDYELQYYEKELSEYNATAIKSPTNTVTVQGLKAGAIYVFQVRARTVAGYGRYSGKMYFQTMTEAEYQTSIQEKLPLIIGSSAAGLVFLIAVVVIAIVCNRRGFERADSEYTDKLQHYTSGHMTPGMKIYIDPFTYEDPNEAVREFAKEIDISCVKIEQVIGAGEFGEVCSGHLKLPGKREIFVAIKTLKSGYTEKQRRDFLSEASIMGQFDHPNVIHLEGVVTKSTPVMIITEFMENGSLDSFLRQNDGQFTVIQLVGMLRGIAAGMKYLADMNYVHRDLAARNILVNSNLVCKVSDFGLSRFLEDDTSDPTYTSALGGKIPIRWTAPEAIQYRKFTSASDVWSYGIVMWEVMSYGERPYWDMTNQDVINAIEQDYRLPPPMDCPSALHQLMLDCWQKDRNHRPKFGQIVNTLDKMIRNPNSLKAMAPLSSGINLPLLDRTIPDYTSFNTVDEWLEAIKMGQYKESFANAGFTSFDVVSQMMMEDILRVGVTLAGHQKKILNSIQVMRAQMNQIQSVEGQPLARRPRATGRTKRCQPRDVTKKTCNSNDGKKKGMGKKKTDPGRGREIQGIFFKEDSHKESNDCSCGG
Sequence of Fes (P07332 whole entry, looked up): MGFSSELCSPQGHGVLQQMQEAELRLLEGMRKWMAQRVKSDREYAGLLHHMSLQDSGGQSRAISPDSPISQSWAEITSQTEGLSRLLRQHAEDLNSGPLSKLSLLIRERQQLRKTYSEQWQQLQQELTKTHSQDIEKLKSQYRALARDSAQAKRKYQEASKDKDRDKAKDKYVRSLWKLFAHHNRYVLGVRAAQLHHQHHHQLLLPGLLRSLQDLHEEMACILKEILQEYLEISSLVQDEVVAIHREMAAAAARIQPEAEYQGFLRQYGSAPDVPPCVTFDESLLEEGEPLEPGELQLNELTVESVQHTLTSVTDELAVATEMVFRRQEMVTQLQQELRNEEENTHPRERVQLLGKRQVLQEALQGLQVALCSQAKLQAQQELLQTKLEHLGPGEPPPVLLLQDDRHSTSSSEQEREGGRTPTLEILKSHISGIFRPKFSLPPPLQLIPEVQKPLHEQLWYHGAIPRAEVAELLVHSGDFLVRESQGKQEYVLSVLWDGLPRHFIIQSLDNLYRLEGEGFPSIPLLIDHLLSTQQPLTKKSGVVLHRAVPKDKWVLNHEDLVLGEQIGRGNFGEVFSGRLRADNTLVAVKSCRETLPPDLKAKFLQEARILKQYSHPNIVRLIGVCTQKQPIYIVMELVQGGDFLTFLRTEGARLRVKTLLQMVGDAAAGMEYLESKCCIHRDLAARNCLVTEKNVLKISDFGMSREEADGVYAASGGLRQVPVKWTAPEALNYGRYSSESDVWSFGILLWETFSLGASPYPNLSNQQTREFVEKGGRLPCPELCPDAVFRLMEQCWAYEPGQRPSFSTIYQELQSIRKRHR
Sequence of Fyn (P06241 whole entry, looked up): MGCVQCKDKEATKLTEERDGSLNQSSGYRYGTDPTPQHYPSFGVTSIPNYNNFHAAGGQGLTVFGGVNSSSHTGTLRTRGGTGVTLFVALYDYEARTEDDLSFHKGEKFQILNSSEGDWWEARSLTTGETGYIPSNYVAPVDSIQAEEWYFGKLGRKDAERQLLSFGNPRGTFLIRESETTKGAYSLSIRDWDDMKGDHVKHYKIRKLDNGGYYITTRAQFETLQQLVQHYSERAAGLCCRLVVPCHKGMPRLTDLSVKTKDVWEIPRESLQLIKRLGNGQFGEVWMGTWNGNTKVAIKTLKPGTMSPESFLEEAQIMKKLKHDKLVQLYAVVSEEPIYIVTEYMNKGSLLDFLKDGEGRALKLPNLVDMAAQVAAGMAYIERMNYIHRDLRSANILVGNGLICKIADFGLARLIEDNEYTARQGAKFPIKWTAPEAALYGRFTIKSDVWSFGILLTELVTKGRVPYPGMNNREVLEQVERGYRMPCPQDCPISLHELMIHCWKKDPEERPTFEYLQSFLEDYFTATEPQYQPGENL
Sequence of Grb2 SH2 (P62993 whole entry, looked up): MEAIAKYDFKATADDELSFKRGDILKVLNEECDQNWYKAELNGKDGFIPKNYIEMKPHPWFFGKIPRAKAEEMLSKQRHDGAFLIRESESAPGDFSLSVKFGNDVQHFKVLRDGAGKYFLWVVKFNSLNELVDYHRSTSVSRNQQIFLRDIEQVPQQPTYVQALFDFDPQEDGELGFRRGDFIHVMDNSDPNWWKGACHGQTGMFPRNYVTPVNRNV
Sequence of Hck (P08631 whole entry, looked up): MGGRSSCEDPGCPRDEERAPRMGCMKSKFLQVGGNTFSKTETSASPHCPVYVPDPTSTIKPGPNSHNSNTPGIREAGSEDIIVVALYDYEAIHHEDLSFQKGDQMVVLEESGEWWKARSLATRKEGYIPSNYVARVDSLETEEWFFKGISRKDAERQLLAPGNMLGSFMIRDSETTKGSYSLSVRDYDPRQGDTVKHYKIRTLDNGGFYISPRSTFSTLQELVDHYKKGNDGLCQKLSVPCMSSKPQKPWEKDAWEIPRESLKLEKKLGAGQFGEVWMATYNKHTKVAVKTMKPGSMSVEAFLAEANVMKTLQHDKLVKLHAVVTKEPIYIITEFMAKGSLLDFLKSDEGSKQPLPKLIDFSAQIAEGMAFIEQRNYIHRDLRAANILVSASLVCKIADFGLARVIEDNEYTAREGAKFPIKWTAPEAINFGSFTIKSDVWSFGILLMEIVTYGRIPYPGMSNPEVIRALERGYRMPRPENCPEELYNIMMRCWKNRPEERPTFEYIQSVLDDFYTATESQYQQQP

| Sequence | SH2 binding enrichment [1] | SH2 binding enrichment [2] | SH2 binding enrichment [3] | phosphorylation enrichment [4] | phosphorylation enrichment [5] | phosphorylation enrichment [6] | phosphorylation enrichment [7] | phosphorylation enrichment [8] | phosphorylation enrichment [9] | phosphorylation enrichment [10] | phosphorylation enrichment [11] | phosphorylation enrichment [12] | phosphorylation enrichment [13] | phosphorylation enrichment [14] | phosphorylation enrichment [15] | phosphorylation enrichment [16] |
| --- | --- | --- | --- | --- | --- | --- | --- | --- | --- | --- | --- | --- | --- | --- | --- | --- |
| PVQAAYPKVVA [HBB_Y131_Q132P] | 0.386 | 0.904 | 0.697 | 0.501 | 0.828 | 0.503 | 0.542 | 1 | 0.902 | 0.42 | 0.322 | 0.335 | 0.706 | 0.504 | 0.804 | 0.261 |
| PYADPYYDYEI [ZC3H18_Y371] | 1.94 | 0.795 | 1.03 | 1.16 | 2.75 | 19.8 | 4.58 | 8.11 | 5.6 | 6.02 | 20.2 | 3.13 | 4.79 | 4.93 | 2.33 | 6.03 |
| PYGQWYESHYA [RPS8_Y113_R110G] | 1.47 | 0.808 | 0.992 | 1.06 | 1.09 | 2.15 | 15.1 | 6.96 | 14.5 | 6.11 | 2.7 | 5.96 | 1.55 | 9.28 | 2.16 | 20.6 |
| PYSNSYENSLI [EPOR_Y489_P488S] | 4.51 | 18.4 | 0.735 | 1.06 | 0.903 | 0.854 | 0.433 | 0.689 | 0.713 | 0.699 | 1.04 | 0.887 | 1.32 | 0.552 | 1.41 | 0.754 |
| QCQLKYSETPF [SIX6OS1_Y129_Y125C] | 0.644 | 0.876 | 0.61 | 0.933 | 1.01 | 0.842 | 0.722 | 0.717 | 0.634 | 0.558 | 0.68 | 0.749 | 1.24 | 0.82 | 1.32 | 0.798 |
| QCTSAHPLQPE [NANS_Y188_Y188H] | 0.594 | 0.672 | 0.465 | 1.09 | 1.28 | 0.961 | 0.923 | 0.461 | 1.07 | 0.601 | 0.966 | 0.771 | 1.25 | 0.449 | 1.73 | 0.726 |
| QDEHGYISWCF [HSPB1_Y133_R136W] | 0.545 | 0.64 | 0.463 | 1.55 | 2.61 | 1.8 | 0.873 | 0.865 | 1 | 0.559 | 1.27 | 0.944 | 2.17 | 0.8 | 2.34 | 1.05 |
| QEALEYFMKQM [PIK3CA_Y1038] | 0.636 | 0.667 | 0.698 | 1.19 | 1.49 | 0.704 | 0.624 | 0.675 | 0.644 | 0.696 | 0.627 | 0.39 | 1.36 | 0.584 | 1.22 | 0.584 |
| QEGPEYWDQQT [HLA-A_Y83_E87Q] | 0.421 | 0.664 | 0.612 | 1.78 | 2.33 | 1.21 | 0.967 | 0.937 | 1.31 | 0.741 | 1.01 | 0.58 | 2.09 | 0.649 | 2.21 | 0.884 |
| QEIATYRRLLE [KRT14_Y415] | 0.413 | 0.862 | 0.58 | 0.563 | 0.693 | 0.68 | 0.53 | 0.503 | 0.418 | 0.562 | 0.509 | 0.453 | 0.689 | 0.464 | 0.936 | 0.411 |
| QEIATYRRLPE [KRT16_Y417_L421P] | 0.441 | 0.855 | 0.593 | 0.683 | 0.73 | 0.737 | 0.592 | 0.38 | 0.77 | 0.525 | 0.507 | 0.553 | 0.762 | 0.489 | 0.757 | 0.406 |
| QEKKGYFEDRR [GLUL_Y336] | 0.952 | 1.02 | 0.761 | 1.2 | 0.628 | 0.733 | 0.577 | 0.469 | 0.618 | 0.906 | 0.682 | 0.792 | 0.907 | 0.605 | 1 | 0.821 |
| QFNMQYSSSAA [ERBB2IP_Y981_I979M_YF] | 0.643 | 0.694 | 0.527 | 0.449 | 0.581 | 0.674 | 0.529 | 0.346 | 0.592 | 0.388 | 0.558 | 0.47 | 0.937 | 0.492 | 1.18 | 0.492 |
| QISSNYDDAMQ [ZNF281_Y531] | 1.11 | 0.667 | 0.728 | 0.569 | 0.939 | 0.703 | 0.771 | 0.57 | 0.665 | 0.348 | 0.434 | 0.499 | 0.962 | 0.845 | 0.978 | 0.533 |
| QITQVCGFFDE [PPP2CA_Y127_Y127C_YF] | 0.521 | 1.03 | 0.587 | 1.65 | 1.92 | 1.24 | 0.871 | 0.599 | 0.645 | 0.434 | 0.5 | 0.645 | 1.56 | 0.812 | 1.95 | 0.612 |
| QKDTFYGLRSL [IGSF10_Y126] | 0.439 | 0.952 | 0.488 | 0.837 | 1 | 0.562 | 0.927 | 0.807 | 0.488 | 0.498 | 0.562 | 0.598 | 0.73 | 0.552 | 1.12 | 0.474 |
| QKPLGYFRVNL [GALE_Y104_D103G_YF] | 1.09 | 1.56 | 1.36 | 0.67 | 1.16 | 0.722 | 0.635 | 0.409 | 0.518 | 0.657 | 0.839 | 0.648 | 1.2 | 0.577 | 1.12 | 0.399 |

| Sequence | SH2 binding enrichment [1] | SH2 binding enrichment [2] | SH2 binding enrichment [3] | phosphorylation enrichment [4] | phosphorylation enrichment [5] | phosphorylation enrichment [6] | phosphorylation enrichment [7] | phosphorylation enrichment [8] | phosphorylation enrichment [9] | phosphorylation enrichment [10] | phosphorylation enrichment [11] | phosphorylation enrichment [12] | phosphorylation enrichment [13] | phosphorylation enrichment [14] | phosphorylation enrichment [15] | phosphorylation enrichment [16] |
| --- | --- | --- | --- | --- | --- | --- | --- | --- | --- | --- | --- | --- | --- | --- | --- | --- |
| QLGLQYSQGLV [EIF2B4_Y214_R209Q] | 0.375 | 0.644 | 0.721 | 0.861 | 1.75 | 0.776 | 0.479 | 0.629 | 0.427 | 0.447 | 0.478 | 0.598 | 0.995 | 0.731 | 0.835 | 0.527 |
| QLHEHYKIHKE [NSMAF_Y626] | 0.637 | 0.985 | 0.747 | 0.623 | 0.641 | 0.772 | 0.597 | 0.777 | 0.455 | 0.697 | 0.311 | 0.526 | 0.748 | 0.878 | 0.95 | 0.563 |
| QLYGPYLRIHA [BSCL2_Y213_A212P] | 1.07 | 1.29 | 1.54 | 0.612 | 0.974 | 0.73 | 2.03 | 2.52 | 0.897 | 2.04 | 0.344 | 2.83 | 0.87 | 0.538 | 1.12 | 0.596 |
| QMIETYFDFRV [NSMF_Y506_L511V] | 0.581 | 0.642 | 0.607 | 0.887 | 2.78 | 4.49 | 1.46 | 4.53 | 2.29 | 3.37 | 5.84 | 2.77 | 1.77 | 1.09 | 1.39 | 0.679 |
| QMVGMYASSFM [AVPR2_Y124_YF] | 0.548 | 0.626 | 0.637 | 1.48 | 1.21 | 0.782 | 0.914 | 1.6 | 0.922 | 1.59 | 0.73 | 1.34 | 0.981 | 2.31 | 1.07 | 0.904 |
| QPSALYEDRFL [ASS1_Y83_S79P_YF] | 0.633 | 0.783 | 0.684 | 0.881 | 0.968 | 1.12 | 2.01 | 1.41 | 3.04 | 1.77 | 0.816 | 6.97 | 1.4 | 1.11 | 1.4 | 10.6 |
| QPSALYEDRYL [ASS1_Y83_S79P] | 0.984 | 0.918 | 0.461 | 0.681 | 1.04 | 0.625 | 1.16 | 0.942 | 1.67 | 0.946 | 0.529 | 3.92 | 0.93 | 0.78 | 1.06 | 6.74 |
| QPSPSYDSSGG [TCF12_Y70_R74G] | 0.573 | 1.02 | 0.977 | 0.477 | 0.579 | 0.623 | 0.778 | 0.478 | 0.44 | 0.667 | 0.611 | 0.604 | 0.668 | 0.452 | 0.731 | 0.553 |
| QQMGTYGVRAA [ICAM2_Y260_R256Q] | 0.37 | 1.07 | 0.373 | 0.442 | 0.313 | 0.417 | 0.414 | 2.48 | 0.281 | 2.06 | 0.392 | 3.77 | 0.33 | 0.658 | 0.579 | 0.339 |
| QRIHDYFEHRF [HCN4_Y554_YF] | 0.957 | 0.847 | 0.46 | 0.625 | 0.575 | 3.23 | 0.843 | 0.496 | 0.614 | 0.479 | 5.67 | 0.527 | 1.06 | 0.447 | 0.656 | 0.872 |
| QRIHNYFEHRF [HCN4_Y554_D553N_YF] | 1.31 | 1.16 | 1.22 | 0.34 | 0.34 | 0.374 | 0.443 | 0.493 | 0.543 | 0.441 | 0.719 | 0.409 | 0.647 | 0.567 | 0.692 | 0.343 |
| QRRLVYYERGA [RYR1_Y245_G248R] | 0.662 | 0.951 | 0.677 | 0.368 | 0.391 | 0.48 | 0.345 | 0.426 | 0.448 | 0.533 | 0.499 | 0.53 | 0.427 | 0.319 | 0.537 | 0.226 |
| QRVLLYVQRET [GRHL3_Y518_R520Q] | 1.03 | 1.66 | 1.52 | 1.36 | 1.89 | 1.13 | 0.763 | 0.57 | 1.04 | 0.673 | 0.855 | 0.509 | 1.82 | 0.452 | 1.89 | 0.885 |
| QSPQLYKQLCI [DARS1_Y253_M256L] | 0.432 | 0.585 | 0.625 | 0.449 | 0.875 | 1.05 | 0.957 | 0.53 | 0.511 | 0.719 | 0.653 | 0.706 | 1.02 | 0.432 | 1.12 | 0.483 |
| QSSALYEDHFL [ASS1_Y83_R86H_YF] | 0.48 | 0.809 | 1.13 | 1.04 | 0.898 | 0.46 | 4.17 | 2.12 | 5.92 | 1.36 | 0.654 | 1.57 | 1.07 | 2.51 | 1.47 | 17.9 |
| QSSEGYDLGDR [KIAA1210_Y564_G565D] | 0.719 | 1.13 | 1.26 | 1.12 | 1.09 | 0.714 | 0.853 | 0.688 | 0.644 | 0.948 | 0.416 | 0.546 | 1.41 | 0.501 | 1.43 | 0.607 |
